One molecule from patent WO2018084236A1 (dated 2018) can be followed below.

The experiment concerns the target T1, peptide fragment of the human prorenin receptor protein, 200-213th polypeptide (SEQ ID NO: 37) (human).
T1 construct: For immunisation, KLH was linked to its amino terminus; also called peptide fragment of the prorenin receptor
T1 peptide: HKHLAKDHSPDLYS
Kind of experiment: BLI (BLItz, Pall ForteBio), antibody in hybridoma culture liquid against the prorenin receptor peptide fragment. For orientation: BLI is a label-free optical method that tracks binding on a fibre tip over time.

B1: anti-prorenin receptor monoclonal antibody 8_6 (antibody, IgM, V domains shown)
VH: VQLVESGGGLVQPGRSLKLSCAASGFTFSNYYMAWVRHAPKKGLEWVATISTSGSRTYYPDSVKGRFTISRDNAKSSLYLQMNSLKSEDTATYYCARHEFGAFDYWGQGVTV
VL: DIVMTQSPSSLAVSAGETVTINCKSSQSLLYSGNQKNYLAWYQQKPGQSPKLLIYWASTRQSGVPDRFIGSGSGTDFTLTISSVQAEDLAIYYCQQYYDTPYTFGAGTK
notes: Rat hybridoma antibody, isotype IgM; Hybridoma culture liquid was tested in the BLI screen
As for B1, the binding result was “binds”.
